Source: patent US8440629B2, “Cyclic receptor-associated protein (RAP) peptides” (Raptor Pharmaceuticals Inc., priority 2007, dated 2013)

T1: LRP2 CR89 Y1042W R1088D (WVWD) (Homo sapiens, UniProt P98164, R1089D/Y1043W)
T1 construct: two CR pairs from LRP2 (CR89, CR3435); made in house; host or cells: E. coli BL21(DE3) CodonPlus-RIPL, pET30(+)a
T1 sequence (P98164 1025-1102 Y1043W/R1089D): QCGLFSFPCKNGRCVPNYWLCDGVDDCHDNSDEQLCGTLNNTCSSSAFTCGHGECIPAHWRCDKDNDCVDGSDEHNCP

T2: LRP2 CR89 Y1042W V1047D R1088D (WDWD) (Homo sapiens, UniProt P98164, R1089D/V1048D/Y1043W)
T2 construct: two CR pairs from LRP2 (CR89, CR3435); made in house; host or cells: E. coli BL21(DE3) CodonPlus-RIPL, pET30(+)a
T2 sequence (P98164 1022-1105 Y1043W/V1048D/R1089D): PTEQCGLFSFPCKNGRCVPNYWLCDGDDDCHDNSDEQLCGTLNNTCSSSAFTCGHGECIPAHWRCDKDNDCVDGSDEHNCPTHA


How the values were obtained:
[1] = target: T3, LRP1 CR3-5 (Homo sapiens, UniProt Q07954); assay: Solid phase binding assay
T3 construct: made in house; host or cells: E. coli BL21(DE3) CodonPlus-RIPL, pET30(+)a

[2] = target: T4, LRP2 CR89 (Homo sapiens, UniProt P98164); assay: Solid phase binding assay
T4 construct: two CR pairs from LRP2 (CR89, CR3435); made in house; host or cells: E. coli BL21(DE3) CodonPlus-RIPL, pET30(+)a
Method: All expression constructs were sequenced to verify insert sequences and the junctions with the expression vector. Each plasmid was then used to transform BL21(DE3) CodonPlus-RIPL™ cells (Stratagene). Expression of the CR proteins was induced in logarithmic growth-phase cells grown in LB supplemented with 34 μg/mL chloramphenicol, 12.5 μg/mL tetracycline and 15 μg/mL kanamycin by addition of 2 mM IPTG, followed by reduction in incubator temperature to 32° C. and incubation for 4 hours with agitation at […]. Cells were pelleted and resuspended, at 3.5% of the initial culture volume in 10 mM Tris-HCl pH 8, 100 mM NaH2PO4, 8M Urea. Resuspended cells were then frozen in liquid nitrogen, rapidly thawed to 37° C. and sonicated for 10 seconds at an amplitude setting of 60 using a Cole-Parmer CP-130 ultrasonic processor connected to a 3 mm probe. This procedure was repeated three times to effect complete lysis of the cells. Lysates were clarified by spinning twice at 10,000×g in a Sorvall RC-5 centrifuge for 20 minutes at 15° C. Ni-NTA columns (Qiagen Superflow™, 1.5 mL packed bed) were used to purify the CR proteins. Briefly, the resin was equilibrated with two column volumes of lysis buffer. The clarified lysate was then supplemented to 20 mM with imidazole and incubated with the equilibrated Ni-NTA resin overnight at 4° C. The flow-through was discarded. Columns were washed once with one column volume of lysis buffer and then three times with one column volume of TBS pH 8 supplemented with 20 mM imidazole. CR-loaded beads were then removed from the column and CR proteins eluted by incubating at room temperature for 30 minutes with one column volume of the same buffer containing 200 mM imidazole. This step was repeated once and the eluates pooled. Eluted CR protein solutions were then supplemented to 2 M urea, 10 mM CaCl2 and 5 mM DTT. Purified, denatured CR protein solutions were transferred to 3,500 MWCO Slide-A-Lyzer™ (Pierce) cassettes and sequentially dialyzed against a 200-fold excess of 50 mM Tris-HCl pH 8.5, 10 mM CaCl2, 1 mM reduced glutathione, 0.5 mM oxidized glutathione at room temperature overnight and then against TBS supplemented with 5 mM CaCl2 at 4° C. overnight. Protein concentrations were determined by Bradford assay and purity confirmed by SDS-PAGE with Coomassie Brilliant Blue staining.
(§1) Purified, refolded CR protein (1 μg) was bound to Nunc Maxisorp™ 96-well plates in TBS pH 8 supplemented with 5 mM CaCl2 (TBSC) overnight at 4° C. Wells were washed with TBSC and then blocked with TBSC containing 2% bovine serum albumin (BSA). RAP ligands were then incubated with the immobilized receptor at a range of concentrations for 2 hours in the above blocking buffer supplemented with 0.05% Tween-20 at room temperature. Control wells contained no added ligand. As an additional control, to determine whether the absence of calcium affected binding, 10 mM EGTA was included in the incubation medium for some samples. Wells were washed with TBSTC and bound ligands detected with polyclonal anti-RAP (BP41/42, 1:1,000, BioMarin). Excess primary antibody was removed and wells washed before incubation with the secondary antibody, HRP-conjugated goat anti rabbit IgG (Bio-Rad). After washing, TMB substrate solutions (Bio-Rad) were added to detect HRP. Color development was stopped with 1N HCl. Absorption at 450 nm was measured with a microplate spectrophotometer (Molecular Devices). Data were plotted and Kd values derived by non-linear regression with the assumption of single-site binding (GraphPad Prism).

[3] = target: T1, LRP2 CR89 Y1042W R1088D (WVWD); assay: Solid phase binding assay, LRP2 CR89 mutant
Excerpt: (§2) Each amplified fragment was sequentially digested with BamHI and HindIII and then ligated into similarly digested pET30(+)a. The resulting plasmids encode proteins consisting of N-terminal hexahistidine and S-peptides fused to the CR fragment. Ligation reactions were transformed into XL-Blue MRF′ (Stratagene) by electroporation and plasmids isolated from single colonies. Three mutations, […], V1047D and R1088D, were introduced into the LRP2 CR89 expression plasmid both singly and in combination using Stratagene QuikChange II XL reagents and the primers: […]
as §1
(§3) One premise of this work was that amino acids at A, C, A′ and C′ within the calcium-binding loops of a CR pair were key determinants of binding affinity for RAP and would be similarly important for binding of RAP variants. To test this idea, mutant LRP2 CR89 were prepared in which the native, non-canonical residues at these positions were sequentially substituted with the non-native, canonical residues. As defined above, the A, C, A′, C′ string for LRP2 CR89 is YVWR. Mutants included LRP2 CR89 Y1042W (WVWR), LRP2 CR89 V1047D (YDWR), LRP2 CR89 R1088D (YVWD), LRP2 CR89 V1047D R1088D (YDWD), LRP2 CR89 Y1042W V1047D R1088D (WDWD), LRP2 CR89 Y1042W V1047D (WDWR), LRP2 CR89 Y1042W R1088D (WVWD). Binding to both RAP d3 and MegaRAP1 d3 were measured for each LRP2 CR89 mutant by solid-phase assay. Only the YVWD mutant retained significant binding to MegaRAP1 d3, with an approximate 2-fold loss of affinity relative to LRP2 CR89 (FIG. 6 and Table 3). […] The A′ position in LRP2 CR89 is a tryptophan, the canonical residue for wild-type RAP d3 binding, and was not mutated in our studies.

[4] = target: T2, LRP2 CR89 Y1042W V1047D R1088D (WDWD); assay: Solid phase binding assay, LRP2 CR89 mutant
Excerpt: as §2, §1, §3

T4 sequence (P98164 1022-1105 limits assumed): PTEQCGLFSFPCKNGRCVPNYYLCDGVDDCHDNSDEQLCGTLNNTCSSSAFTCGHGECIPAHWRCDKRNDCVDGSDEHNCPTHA
T3 sequence (Q07954 852-973): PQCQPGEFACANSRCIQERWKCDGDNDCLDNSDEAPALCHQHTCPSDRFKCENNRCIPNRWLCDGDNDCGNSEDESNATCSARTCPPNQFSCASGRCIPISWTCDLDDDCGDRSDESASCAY

| binding at 80 nM (in words) ([1]; 80 nM ligand, FIG. 7) | binding to LRP2 CR89 (in words) ([2]; solid-phase assay) | binding (in words) [3] | binding (in words) [4] | binding to LRP1 CR3-5 (in words) ([1]; solid-phase assay) | binding at 80 nM (in words) ([2]; 80 nM ligand, FIG. 7) | Kd ([2]; solid-phase assay, LRP2 CR89, read-out: apparent dissociation constant (Kd)) [µM] | Molecule |
| --- | --- | --- | --- | --- | --- | --- | --- |
| only bound to LRP1 CR3-5 | no significant affinity | small increase in binding | small increase in binding |  |  |  | RAP d3: third domain of human RAP, amino acids 201-319 of mature RAP, bacterially expressed with hexahistidine and S-peptide tags (SEQ ID NO: 92) (protein, listed as Homo sapiens, hexahistidine and S-peptide tags) LDRLRRVSHQGYSTEAEFEEPRVIDLWDLEQSANLTDKELEAFREELKHFEAKIEKHNHYQKQLEIAHEKLRHAESVGDGERVSRSREKHALLEGRTKELGYTVKKHLQDLSGRISRAR |
|  |  | failed to bind measurably | failed to bind measurably | no significant affinity | bound only to LRP2 CR89 | 0.038 | MegaRAP1 d3: d3 of RAP variant selected on LRP2 CR89: S213T, E217K, H249Y, E251K, K256A, K270E (SEQ ID NO: 93) (protein, listed as Homo sapiens) LDRLRRVSHQGYSTEAEFEEPRVIDLWDLEQSANLTDKELEAFREELKHFKAKIEAHNHYQKQLEIAHEDLRHAESVGDGERVSRSREKHALLEGRTKELGYTVKKHLQDLSGRISRAR |
